Test results taken from the supplement of paper PMC10065799, “High-throughput profiling of sequence recognition by tyrosine kinases and SH2 domains using bacterial peptide display” (eLife, 2023).

Key:
[1] = molecular target: SHP2-C SH2; assay: SH2 binding enrichment of the phosphorylated peptide, bacterial display (enrichment ratio); higher = better substrate or ligand; peptides without Tyr show the background
[2] = molecular target: Grb2 SH2 (UniProt P62993); assay: as above
[3] = molecular target: c-Src SH2; assay: as above
[4] = molecular target: EPHB1 (UniProt P54762); assay: phosphorylation enrichment, bacterial display (enrichment ratio); higher = better substrate or ligand; peptides without Tyr show the background
[5] = molecular target: Fes (UniProt P07332); assay: as above
[6] = molecular target: Fyn (UniProt P06241); assay: as above
[7] = molecular target: Jak2 (UniProt O60674); assay: as above
[8] = molecular target: Hck (UniProt P08631); assay: as above
[9] = tested on: AncSZ; assay: as above
[10] = molecular target: MERTK (UniProt Q12866); assay: as above
[11] = tested on: c-Abl (mouse); assay: as above
[12] = tested on: c-Src; assay: as above
[13] = molecular target: FGFR1 (UniProt P11362); assay: as above
[14] = molecular target: EPHB2 (UniProt P29323); assay: as above
[15] = molecular target: FGFR3 (UniProt P22607); assay: as above
[16] = tested on: Fer (mouse); assay: as above
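For SH2 binding enrichment of the phosphorylated peptide, bacterial display in this document: peptide library displayed on the E. coli surface as eCPX fusions, selected cells deep-sequenced, score is each peptide's frequency after selection divided by its frequency in the input.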
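For phosphorylation enrichment, bacterial display in this document: 11-residue human phosphosite peptides and single-mutation variants displayed on the E. coli surface, counted by deep sequencing, each peptide's frequency after selection divided by its frequency in the unselected input library; frequency after pTyr selection over input frequency; kinase dosed for 20-30% of maximal phosphorylation in three min.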

FGFR1, sequence (P11362 whole entry, looked up): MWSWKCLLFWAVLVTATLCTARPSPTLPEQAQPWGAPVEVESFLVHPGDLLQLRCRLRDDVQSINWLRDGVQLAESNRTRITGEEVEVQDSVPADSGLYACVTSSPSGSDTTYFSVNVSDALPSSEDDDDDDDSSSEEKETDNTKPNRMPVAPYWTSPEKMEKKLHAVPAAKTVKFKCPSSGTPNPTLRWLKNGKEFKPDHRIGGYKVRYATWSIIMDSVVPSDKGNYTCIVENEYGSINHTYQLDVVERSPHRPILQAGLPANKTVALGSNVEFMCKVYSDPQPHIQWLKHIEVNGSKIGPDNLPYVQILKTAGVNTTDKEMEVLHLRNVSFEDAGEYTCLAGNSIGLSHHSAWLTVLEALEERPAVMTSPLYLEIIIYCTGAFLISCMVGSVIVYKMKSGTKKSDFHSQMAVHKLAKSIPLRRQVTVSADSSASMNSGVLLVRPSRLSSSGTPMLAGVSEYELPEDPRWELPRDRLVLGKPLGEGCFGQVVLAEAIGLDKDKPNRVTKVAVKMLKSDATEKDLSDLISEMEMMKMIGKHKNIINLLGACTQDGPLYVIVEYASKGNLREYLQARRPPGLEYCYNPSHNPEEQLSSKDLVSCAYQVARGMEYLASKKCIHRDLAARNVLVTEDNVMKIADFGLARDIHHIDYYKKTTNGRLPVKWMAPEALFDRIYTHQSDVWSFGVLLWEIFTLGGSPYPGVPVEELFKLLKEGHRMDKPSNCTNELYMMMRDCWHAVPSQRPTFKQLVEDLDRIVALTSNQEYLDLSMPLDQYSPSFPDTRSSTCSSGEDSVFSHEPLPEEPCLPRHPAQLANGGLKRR
EPHB1, sequence (P54762 whole entry, looked up): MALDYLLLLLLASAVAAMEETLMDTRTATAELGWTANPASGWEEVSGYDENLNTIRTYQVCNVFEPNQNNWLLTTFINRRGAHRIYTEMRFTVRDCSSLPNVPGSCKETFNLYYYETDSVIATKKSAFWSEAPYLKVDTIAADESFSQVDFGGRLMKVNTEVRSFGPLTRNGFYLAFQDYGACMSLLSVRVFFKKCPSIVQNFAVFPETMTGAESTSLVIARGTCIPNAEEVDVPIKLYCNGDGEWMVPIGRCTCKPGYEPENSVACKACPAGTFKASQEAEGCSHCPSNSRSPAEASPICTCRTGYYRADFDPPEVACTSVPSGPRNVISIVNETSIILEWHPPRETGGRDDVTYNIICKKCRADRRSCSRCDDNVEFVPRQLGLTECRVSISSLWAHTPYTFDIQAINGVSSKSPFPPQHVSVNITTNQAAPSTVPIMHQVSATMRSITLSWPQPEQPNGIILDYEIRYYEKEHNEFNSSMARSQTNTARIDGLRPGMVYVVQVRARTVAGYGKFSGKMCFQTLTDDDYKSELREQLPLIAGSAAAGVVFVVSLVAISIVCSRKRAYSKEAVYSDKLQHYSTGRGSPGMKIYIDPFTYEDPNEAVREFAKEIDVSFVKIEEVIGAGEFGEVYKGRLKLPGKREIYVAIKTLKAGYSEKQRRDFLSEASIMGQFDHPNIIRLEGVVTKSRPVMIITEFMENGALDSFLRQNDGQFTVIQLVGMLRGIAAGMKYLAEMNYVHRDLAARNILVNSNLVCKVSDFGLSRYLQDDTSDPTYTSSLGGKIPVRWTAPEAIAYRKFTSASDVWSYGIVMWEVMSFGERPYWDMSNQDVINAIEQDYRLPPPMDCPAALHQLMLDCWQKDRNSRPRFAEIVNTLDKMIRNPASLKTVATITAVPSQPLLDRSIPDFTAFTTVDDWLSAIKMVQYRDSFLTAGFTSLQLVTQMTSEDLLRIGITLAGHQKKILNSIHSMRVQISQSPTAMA
Fes, sequence (P07332 whole entry, looked up): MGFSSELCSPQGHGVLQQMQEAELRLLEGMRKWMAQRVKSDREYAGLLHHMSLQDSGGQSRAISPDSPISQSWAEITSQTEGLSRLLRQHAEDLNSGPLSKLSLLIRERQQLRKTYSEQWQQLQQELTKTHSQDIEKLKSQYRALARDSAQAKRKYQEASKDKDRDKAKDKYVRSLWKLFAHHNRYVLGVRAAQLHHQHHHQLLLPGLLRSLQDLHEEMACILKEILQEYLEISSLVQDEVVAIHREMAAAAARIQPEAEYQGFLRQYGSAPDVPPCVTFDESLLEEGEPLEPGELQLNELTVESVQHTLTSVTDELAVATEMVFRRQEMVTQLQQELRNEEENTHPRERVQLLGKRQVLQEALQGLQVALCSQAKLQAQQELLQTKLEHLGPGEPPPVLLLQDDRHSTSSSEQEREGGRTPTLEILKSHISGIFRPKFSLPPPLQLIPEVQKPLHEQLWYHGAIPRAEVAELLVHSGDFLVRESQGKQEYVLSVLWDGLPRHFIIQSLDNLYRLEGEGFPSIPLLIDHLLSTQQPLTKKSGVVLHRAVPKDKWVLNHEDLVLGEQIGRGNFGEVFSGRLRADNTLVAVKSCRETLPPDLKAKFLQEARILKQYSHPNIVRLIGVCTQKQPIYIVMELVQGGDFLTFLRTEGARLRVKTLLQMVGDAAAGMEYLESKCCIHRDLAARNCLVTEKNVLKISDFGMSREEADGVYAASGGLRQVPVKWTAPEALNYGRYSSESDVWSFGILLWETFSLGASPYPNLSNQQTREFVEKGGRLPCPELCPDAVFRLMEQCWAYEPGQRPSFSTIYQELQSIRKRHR
Fyn, sequence (P06241 whole entry, looked up): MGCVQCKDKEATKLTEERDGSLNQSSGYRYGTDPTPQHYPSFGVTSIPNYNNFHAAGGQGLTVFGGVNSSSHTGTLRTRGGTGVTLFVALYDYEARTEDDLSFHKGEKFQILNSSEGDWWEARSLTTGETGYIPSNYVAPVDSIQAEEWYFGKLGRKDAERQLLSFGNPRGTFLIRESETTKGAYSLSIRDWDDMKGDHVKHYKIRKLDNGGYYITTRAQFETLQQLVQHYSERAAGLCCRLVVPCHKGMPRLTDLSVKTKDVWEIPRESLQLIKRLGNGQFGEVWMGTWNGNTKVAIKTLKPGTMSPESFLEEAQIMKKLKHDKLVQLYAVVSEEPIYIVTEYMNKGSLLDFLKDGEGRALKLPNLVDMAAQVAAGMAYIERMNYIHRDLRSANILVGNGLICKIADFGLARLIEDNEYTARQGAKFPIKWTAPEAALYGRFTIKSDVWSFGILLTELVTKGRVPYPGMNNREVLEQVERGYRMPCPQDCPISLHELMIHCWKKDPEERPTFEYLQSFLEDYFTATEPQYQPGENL
FGFR3, sequence (P22607 whole entry, looked up): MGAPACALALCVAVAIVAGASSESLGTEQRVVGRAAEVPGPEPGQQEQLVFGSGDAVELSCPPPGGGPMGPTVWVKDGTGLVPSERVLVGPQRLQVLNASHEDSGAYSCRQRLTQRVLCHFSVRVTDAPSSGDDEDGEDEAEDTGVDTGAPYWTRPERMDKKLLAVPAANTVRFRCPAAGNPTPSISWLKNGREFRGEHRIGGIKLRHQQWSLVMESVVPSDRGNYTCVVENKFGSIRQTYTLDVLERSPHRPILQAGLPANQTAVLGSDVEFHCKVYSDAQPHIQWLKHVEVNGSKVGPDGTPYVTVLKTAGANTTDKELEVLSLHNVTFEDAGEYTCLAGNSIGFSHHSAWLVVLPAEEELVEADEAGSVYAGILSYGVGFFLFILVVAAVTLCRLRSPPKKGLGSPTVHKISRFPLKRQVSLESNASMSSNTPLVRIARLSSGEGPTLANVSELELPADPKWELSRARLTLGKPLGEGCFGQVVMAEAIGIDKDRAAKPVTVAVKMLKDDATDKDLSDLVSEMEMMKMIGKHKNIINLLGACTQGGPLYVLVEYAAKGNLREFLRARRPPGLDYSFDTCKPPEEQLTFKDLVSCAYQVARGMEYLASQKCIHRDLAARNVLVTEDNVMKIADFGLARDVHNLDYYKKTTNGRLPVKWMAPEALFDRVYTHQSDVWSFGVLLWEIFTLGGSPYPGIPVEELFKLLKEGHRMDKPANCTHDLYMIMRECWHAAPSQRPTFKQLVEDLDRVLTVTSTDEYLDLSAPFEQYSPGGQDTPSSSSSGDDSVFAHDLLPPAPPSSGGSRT
MERTK, sequence (Q12866 whole entry, looked up): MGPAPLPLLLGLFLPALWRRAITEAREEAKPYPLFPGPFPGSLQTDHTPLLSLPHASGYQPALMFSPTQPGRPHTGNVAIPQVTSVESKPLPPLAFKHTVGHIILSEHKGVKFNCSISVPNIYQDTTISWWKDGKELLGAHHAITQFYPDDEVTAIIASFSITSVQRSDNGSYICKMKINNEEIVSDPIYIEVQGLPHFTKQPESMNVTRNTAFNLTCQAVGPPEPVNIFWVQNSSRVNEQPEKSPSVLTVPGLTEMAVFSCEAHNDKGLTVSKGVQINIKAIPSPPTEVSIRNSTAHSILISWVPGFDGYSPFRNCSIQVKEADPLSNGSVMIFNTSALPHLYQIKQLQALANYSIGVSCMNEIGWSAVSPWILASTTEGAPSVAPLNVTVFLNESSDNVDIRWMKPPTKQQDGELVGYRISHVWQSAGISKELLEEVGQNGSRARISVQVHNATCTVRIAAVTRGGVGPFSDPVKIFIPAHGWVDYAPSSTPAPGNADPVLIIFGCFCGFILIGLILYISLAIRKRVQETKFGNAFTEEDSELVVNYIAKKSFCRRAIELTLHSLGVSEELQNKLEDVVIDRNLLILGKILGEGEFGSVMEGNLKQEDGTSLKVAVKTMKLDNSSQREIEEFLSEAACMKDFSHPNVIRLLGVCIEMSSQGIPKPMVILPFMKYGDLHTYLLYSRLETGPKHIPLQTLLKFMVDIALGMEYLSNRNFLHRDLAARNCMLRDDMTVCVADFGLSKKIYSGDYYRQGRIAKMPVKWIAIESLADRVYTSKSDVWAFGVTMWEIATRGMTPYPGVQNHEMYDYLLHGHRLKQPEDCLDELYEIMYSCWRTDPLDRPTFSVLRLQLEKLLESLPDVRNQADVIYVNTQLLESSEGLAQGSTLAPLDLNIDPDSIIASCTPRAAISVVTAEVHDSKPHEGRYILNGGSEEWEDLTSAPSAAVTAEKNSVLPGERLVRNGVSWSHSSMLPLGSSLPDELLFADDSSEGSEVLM

Sequence	SH2 binding enrichment [1]	SH2 binding enrichment [2]	SH2 binding enrichment [3]	phosphorylation enrichment [4]	phosphorylation enrichment [5]	phosphorylation enrichment [6]	phosphorylation enrichment [7]	phosphorylation enrichment [8]	phosphorylation enrichment [9]	phosphorylation enrichment [10]	phosphorylation enrichment [11]	phosphorylation enrichment [12]	phosphorylation enrichment [13]	phosphorylation enrichment [14]	phosphorylation enrichment [15]	phosphorylation enrichment [16]
KSLFHYRQYSA [CPS1_Y1491]	0.521	0.749	0.379	0.527	0.808	0.54	0.686	0.512	0.778	0.469	0.567	0.493	0.531	0.602	0.646	0.408
KCLAVYQAGAR [APOE_Y180_R176C]	0.628	0.841	0.677	0.597	0.742	0.646	0.744	0.812	0.737	0.478	0.734	2.45	0.47	0.646	0.557	0.487
EQDRAYLEGTC [HLA-C_Y183_L180D]	0.868	0.939	0.771	0.549	1.14	0.511	0.978	0.507	1.1	0.454	0.84	0.519	0.521	0.574	0.663	0.499
LSNPAYCLLLA [DDR1_Y513_R514C]	0.819	0.683	0.591	1.05	1.63	0.605	1.49	0.855	1.5	5.79	0.912	0.699	6.78	0.844	4.44	0.973
PEEKVYLSRGD [CRACR2A_Y141_H136P]	0.529	0.804	0.457	1.06	1.77	0.88	1.22	1.1	1.44	0.735	1.35	1.01	0.706	0.573	1.29	0.778
SKNSKCNAEST [PSEN1_Y315_Y315C]	0.754	0.913	0.546	0.48	0.768	0.379	0.51	0.499	0.546	0.368	0.566	0.383	0.769	0.463	0.486	0.508
GDPTEYYITAI [IGSF22_Y501_S503I]	0.478	0.647	0.374	0.594	1.1	0.598	1.38	0.562	1.95	0.399	0.809	0.703	2.91	0.647	2.6	0.611
KQELVYTNKKL [OPTN_Y356]	0.803	0.781	0.4	0.496	0.675	0.441	0.791	0.734	0.69	0.594	0.759	0.836	0.47	0.561	0.474	0.571
FVFSFYHAFSG [ACTN4_Y265_S262F_YF]	1.31	1.55	1.04	0.808	1.1	0.505	1.25	0.525	0.963	1.6	0.994	0.714	0.492	0.812	0.693	0.455
SSTASYFEAPG [RFX2_Y108]	0.454	0.862	0.567	0.445	0.802	0.442	0.968	0.433	0.789	0.449	0.531	0.432	4.92	0.487	3.47	0.378
RHPFFYAPELL [ALB_Y174_YF]	1.14	1.34	0.988	1.18	1.99	1.32	1.97	0.733	1.61	0.839	1.12	1.05	1.25	1.04	0.969	1.06
IRKKYYRAILE [CHD7_Y1218_Q1214R]	0.725	0.596	0.394	0.388	0.581	0.405	0.439	0.485	0.529	0.508	0.478	0.446	0.423	0.362	0.439	0.389
RLGVTYEQALA [MAP2_Y996_G991R]	0.539	0.848	0.871	0.729	1	0.77	1.15	0.56	1.36	0.737	0.965	1.05	0.721	1.81	0.825	0.535
GVTLLYFGRFN [ADGRD1_Y85_YF]	1.41	1.27	0.981	0.501	1.34	0.562	1.32	0.541	1.54	0.389	0.817	0.426	0.448	0.676	0.794	0.497
EAIAKYDFKAT [GRB2_Y7]	0.679	0.775	0.465	0.488	0.827	0.408	0.597	0.387	0.658	0.396	0.618	0.393	0.587	0.412	0.528	0.327
DAHFTYSRYPW [LY75_Y888_D884A]	0.761	0.817	0.51	2.76	0.885	2.4	1.02	3.76	1.16	1.27	1.19	3.24	0.716	5.6	0.641	0.5
